Reference: article PMC10585736, “Analyses of POL30 (PCNA) reveal positional effects in transient repression or bi-modal active/silent state at the sub-telomeres of S. cerevisiae” (Epigenetics & Chromatin, 2023)

T1: Rrm3p-Myc (S. cerevisiae, UniProt P38766 1-723)
T1 construct: Rrm3p DNA helicase, S. cerevisiae; source: expressed from a low copy plasmid in the POL30-0 and mutant pol30 yeast strains, in lysate
T1 sequence (looked up): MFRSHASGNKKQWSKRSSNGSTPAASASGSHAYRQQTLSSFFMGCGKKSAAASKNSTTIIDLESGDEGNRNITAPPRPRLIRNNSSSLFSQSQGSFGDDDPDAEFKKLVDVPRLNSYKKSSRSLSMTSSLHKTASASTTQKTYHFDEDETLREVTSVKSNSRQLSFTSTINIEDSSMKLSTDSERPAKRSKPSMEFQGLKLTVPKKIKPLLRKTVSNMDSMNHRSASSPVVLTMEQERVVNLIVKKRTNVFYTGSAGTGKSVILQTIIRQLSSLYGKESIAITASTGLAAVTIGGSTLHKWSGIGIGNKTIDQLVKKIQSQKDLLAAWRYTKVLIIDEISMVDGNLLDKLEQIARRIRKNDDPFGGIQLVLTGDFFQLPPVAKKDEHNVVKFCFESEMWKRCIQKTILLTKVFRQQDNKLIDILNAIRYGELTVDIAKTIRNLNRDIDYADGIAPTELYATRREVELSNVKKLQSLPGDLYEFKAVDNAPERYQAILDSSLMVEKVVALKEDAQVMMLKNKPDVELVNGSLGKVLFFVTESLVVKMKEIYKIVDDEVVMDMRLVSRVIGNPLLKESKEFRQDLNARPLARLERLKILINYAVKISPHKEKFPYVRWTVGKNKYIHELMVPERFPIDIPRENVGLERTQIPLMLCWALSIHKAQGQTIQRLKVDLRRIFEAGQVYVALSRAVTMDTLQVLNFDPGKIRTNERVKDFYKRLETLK


Target: T1, Rrm3p-Myc
Assay: co-IP; Cac1p-FLAG and Rrm3p-Myc from low copy plasmids in the POL30-0 and mutant pol30 strains; α-FLAG or α-Myc precipitation from lysate in IP buffer (150 mM NaCl, 50 mM Tris pH 7.5, 2 mM EDTA), washes with 0.2% Triton X100 + 0.01% SDS, elution with FLAG or Myc peptide, blot with α-PCNA
Settings: partners not purified

Binder	fold reduction of co-precipitated Pol30p against wild-type Pol30p [fold]
pol30-6 mutant Pol30p of the pol30-6 strain (natural protein, S. cerevisiae, UniProt P15873 1-258, looked up, Pol30p (PCNA), S. cerevisiae, double alanine substitutions at Asp 41 and Asp 42; detected with α-PCNA; also called Pol30-6p; source: expressed in the pol30-6 mutant yeast strain, in lysate) MLEAKFEEASLFKRIIDGFKDCVQLVNFQCKEDGIIAQAVAASRVLLVSLEIGVEAFQEYRCDHPVTLGMDLTSLSKILRCGNNTDTLTLIADNTPDSIILLFEDTKKDRIAEYSLKLMDIDADFLKIEELQYDSTLSLPSSEFSKIVRDLSQLSDSINIMITKETIKFVADGDIGSGSVIIKPFVDMEHPETSIKLEMDQPVDLTFGAKYLLDIIKGSSLSDRVGIRLSSEAPALFQFDLKSGFLQFFLAPKFNDEE	5
pol30-8 mutant Pol30p of the pol30-8 strain (natural protein, S. cerevisiae, UniProt P15873 1-258, looked up, Pol30p (PCNA), S. cerevisiae, double alanine substitutions at Arg 61 and Asp 63; detected with α-PCNA; also called Pol30-8p; source: expressed in the pol30-8 mutant yeast strain, in lysate) MLEAKFEEASLFKRIIDGFKDCVQLVNFQCKEDGIIAQAVDDSRVLLVSLEIGVEAFQEYACAHPVTLGMDLTSLSKILRCGNNTDTLTLIADNTPDSIILLFEDTKKDRIAEYSLKLMDIDADFLKIEELQYDSTLSLPSSEFSKIVRDLSQLSDSINIMITKETIKFVADGDIGSGSVIIKPFVDMEHPETSIKLEMDQPVDLTFGAKYLLDIIKGSSLSDRVGIRLSSEAPALFQFDLKSGFLQFFLAPKFNDEE	< 2
